Test results reported in PMC2217211.

Target: endogenous Xenopus type 1 inositol 1,4,5-trisphosphate receptor (Xenopus laevis (endogenous in oocytes)) (UniProt Q91908)
Assay: co-IP

recombinant rat type 3 inositol 1,4,5-trisphosphate receptor, Q63269 1-2670, sequence (Q63269 whole entry): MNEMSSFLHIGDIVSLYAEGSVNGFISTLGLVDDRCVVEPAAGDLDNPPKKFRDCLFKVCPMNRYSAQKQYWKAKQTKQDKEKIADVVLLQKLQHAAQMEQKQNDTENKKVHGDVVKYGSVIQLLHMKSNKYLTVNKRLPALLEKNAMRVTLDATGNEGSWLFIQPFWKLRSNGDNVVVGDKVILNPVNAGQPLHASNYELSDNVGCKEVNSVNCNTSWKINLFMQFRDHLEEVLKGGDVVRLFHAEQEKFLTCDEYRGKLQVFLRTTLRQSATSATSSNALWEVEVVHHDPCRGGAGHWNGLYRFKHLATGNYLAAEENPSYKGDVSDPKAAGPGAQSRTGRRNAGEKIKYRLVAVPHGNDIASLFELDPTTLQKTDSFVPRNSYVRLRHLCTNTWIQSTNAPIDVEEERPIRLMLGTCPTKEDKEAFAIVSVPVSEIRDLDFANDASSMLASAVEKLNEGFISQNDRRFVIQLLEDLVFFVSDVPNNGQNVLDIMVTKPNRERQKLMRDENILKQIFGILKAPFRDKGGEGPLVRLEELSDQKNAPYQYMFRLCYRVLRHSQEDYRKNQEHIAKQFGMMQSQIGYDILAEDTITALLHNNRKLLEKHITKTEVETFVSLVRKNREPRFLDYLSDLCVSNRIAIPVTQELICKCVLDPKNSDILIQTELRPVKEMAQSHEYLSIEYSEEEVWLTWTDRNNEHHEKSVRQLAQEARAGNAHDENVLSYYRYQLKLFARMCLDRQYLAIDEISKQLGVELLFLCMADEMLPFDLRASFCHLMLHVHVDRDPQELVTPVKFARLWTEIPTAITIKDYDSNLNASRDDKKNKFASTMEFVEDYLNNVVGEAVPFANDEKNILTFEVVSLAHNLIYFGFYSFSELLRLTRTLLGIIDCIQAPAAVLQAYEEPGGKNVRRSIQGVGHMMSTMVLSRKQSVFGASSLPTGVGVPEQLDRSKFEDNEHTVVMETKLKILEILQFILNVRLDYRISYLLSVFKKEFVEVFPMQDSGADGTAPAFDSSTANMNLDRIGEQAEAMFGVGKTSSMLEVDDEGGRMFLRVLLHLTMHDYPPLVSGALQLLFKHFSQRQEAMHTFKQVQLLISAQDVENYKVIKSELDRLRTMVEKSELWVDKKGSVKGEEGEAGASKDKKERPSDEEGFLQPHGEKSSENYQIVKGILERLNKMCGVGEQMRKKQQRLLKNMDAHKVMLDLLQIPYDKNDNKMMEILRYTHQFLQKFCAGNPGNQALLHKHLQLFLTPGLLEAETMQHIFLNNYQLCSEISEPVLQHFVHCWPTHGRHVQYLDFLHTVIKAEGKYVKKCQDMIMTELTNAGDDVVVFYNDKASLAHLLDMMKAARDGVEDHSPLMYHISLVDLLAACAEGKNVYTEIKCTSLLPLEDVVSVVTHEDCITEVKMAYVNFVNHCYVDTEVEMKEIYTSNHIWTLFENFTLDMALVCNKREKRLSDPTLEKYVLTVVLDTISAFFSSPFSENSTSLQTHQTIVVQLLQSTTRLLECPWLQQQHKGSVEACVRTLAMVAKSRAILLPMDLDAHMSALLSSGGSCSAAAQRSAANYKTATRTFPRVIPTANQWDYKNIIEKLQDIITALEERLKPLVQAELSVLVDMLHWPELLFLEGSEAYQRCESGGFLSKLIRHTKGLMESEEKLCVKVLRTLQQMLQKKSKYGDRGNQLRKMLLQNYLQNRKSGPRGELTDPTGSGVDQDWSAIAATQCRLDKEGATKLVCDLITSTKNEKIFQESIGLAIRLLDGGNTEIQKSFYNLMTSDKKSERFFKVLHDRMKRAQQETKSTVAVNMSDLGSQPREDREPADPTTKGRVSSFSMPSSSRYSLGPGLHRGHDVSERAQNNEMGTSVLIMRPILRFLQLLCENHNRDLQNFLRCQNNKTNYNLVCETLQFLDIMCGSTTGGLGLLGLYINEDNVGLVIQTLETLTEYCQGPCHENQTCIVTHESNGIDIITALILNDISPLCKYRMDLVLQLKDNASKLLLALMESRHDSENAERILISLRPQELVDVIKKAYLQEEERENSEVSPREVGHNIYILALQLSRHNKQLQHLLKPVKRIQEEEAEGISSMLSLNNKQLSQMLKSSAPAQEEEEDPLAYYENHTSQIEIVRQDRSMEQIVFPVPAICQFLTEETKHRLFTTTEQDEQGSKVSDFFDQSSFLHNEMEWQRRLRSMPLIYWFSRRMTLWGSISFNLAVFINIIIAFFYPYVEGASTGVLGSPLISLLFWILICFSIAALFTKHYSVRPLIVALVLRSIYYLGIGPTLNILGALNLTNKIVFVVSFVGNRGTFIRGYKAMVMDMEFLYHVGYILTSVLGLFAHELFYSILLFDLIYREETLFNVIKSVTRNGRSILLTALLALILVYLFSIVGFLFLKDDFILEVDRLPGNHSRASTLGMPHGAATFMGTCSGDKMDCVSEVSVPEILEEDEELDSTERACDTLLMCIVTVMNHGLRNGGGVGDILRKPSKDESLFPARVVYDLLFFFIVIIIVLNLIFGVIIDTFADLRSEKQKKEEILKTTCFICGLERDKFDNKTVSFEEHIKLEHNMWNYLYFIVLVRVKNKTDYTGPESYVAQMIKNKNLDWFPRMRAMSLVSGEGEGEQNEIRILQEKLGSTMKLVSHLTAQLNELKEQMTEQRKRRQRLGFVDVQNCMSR

## recombinant rat type 3 inositol 1,4,5-trisphosphate receptor, Q63269 1-2670
  percent of expressed r-InsP3R-3 in heteroligomers with X-InsP3R-1: 7 to 10%
